Earlier results as cited in paper PMC6082625.
Read-outs that look alike come from different tables or passages of the source. Each block holds one substance with its values, some of them ahead of it.

How the values were obtained:
[1] = target: Hsp90 (Homo sapiens) (UniProt P07900)
[2] = target: J-domain protein (DnaJ) J domain (Escherichia coli) (UniProt P08622)
[3] = target: Hsp90 (Homo sapiens) (UniProt P07900); remark: listed apart in the source

Chain of Hsp70 (DnaK) (P0A6Y8 2-638): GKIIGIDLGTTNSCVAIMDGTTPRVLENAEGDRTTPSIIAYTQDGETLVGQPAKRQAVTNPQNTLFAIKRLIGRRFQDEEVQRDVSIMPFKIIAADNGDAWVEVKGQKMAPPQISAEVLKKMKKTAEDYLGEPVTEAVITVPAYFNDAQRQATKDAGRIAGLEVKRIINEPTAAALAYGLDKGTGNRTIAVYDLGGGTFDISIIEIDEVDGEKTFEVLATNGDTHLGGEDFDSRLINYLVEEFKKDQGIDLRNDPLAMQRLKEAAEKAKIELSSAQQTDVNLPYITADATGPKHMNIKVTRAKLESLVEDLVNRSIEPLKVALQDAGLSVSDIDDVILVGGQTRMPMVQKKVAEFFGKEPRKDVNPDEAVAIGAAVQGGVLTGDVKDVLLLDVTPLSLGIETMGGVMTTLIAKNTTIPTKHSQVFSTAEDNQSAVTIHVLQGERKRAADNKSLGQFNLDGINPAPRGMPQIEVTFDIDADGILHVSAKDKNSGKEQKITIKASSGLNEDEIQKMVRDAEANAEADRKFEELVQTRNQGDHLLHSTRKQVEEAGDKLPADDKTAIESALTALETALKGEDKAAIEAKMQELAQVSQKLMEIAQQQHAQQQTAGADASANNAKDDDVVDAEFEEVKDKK
Chain of J-domain protein (DnaJ) J domain (Escherichia coli) (P08622 1-75): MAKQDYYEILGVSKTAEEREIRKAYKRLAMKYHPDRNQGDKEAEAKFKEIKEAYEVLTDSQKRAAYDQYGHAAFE
Chain of p23 (Q15185 whole entry): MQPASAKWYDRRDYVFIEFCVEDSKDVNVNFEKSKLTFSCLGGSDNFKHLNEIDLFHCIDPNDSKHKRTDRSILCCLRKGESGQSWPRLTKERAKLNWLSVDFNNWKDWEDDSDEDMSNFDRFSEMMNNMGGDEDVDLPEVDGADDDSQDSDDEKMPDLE
Chain of Aha1 (O95433 whole entry): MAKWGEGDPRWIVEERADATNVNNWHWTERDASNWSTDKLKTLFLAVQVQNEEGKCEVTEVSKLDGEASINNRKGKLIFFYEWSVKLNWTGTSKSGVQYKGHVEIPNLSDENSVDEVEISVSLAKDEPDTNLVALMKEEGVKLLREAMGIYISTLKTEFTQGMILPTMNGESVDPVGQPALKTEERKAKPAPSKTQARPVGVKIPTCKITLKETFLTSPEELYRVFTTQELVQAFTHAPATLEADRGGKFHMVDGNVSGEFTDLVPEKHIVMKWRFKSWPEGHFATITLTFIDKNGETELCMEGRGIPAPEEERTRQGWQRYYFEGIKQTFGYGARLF

Kd [1]: 0.7 µM
Substance: Aha1 (from UniProt O95433)

Kd [2]: 10 µM
Substance: Hsp70 (DnaK) (from UniProt P0A6Y8)

Kd [3]: 1 µM
Substance: p23 (from UniProt Q15185)
